Consider one protein from FireProtDB (doi:10.1021/bi0118052).

Where “and” joins values, the source holds several entries; their conditions need not be identical. Equal values may be shown once.

The conditions of the series: Homo sapiens; pH 7.2; 25 °C; GdnHCl; CD; MOPS 10 mM; KCl 50 mM; reversible: yes; whole UniProt chain shown.

B1: Protein S100-B wild type, P04271 (protein)
chain: MSELEKAMVALIDVFHQYSGREGDKHKLKKSELKELINNELSHFLEEIKEQEVVDKVMETLDNDGDGECDFQEFMAFVAMVTTACHEFFEHE
Regarding B1, the “denaturant midpoint (higher = more stable)” value was 3.2 M and 4.6 M; the unfolding free energy stood at 17.3 kcal/mol.
